Columns and labels:
Assay in all cases: pulldown
Conditions in all cases: sense/antisense normalized AUC more than 2-fold
[1] = target: FLG2 (Filaggrin-2) (Homo sapiens) (UniProt Q5D862)
[2] = target: ACLY (ATP-citrate synthase) (Homo sapiens) (UniProt P53396)
[3] = target: T1, SFPQ (splicing factor, proline- and glutamine-rich) (Homo sapiens) (UniProt P23246)
T1 sequence: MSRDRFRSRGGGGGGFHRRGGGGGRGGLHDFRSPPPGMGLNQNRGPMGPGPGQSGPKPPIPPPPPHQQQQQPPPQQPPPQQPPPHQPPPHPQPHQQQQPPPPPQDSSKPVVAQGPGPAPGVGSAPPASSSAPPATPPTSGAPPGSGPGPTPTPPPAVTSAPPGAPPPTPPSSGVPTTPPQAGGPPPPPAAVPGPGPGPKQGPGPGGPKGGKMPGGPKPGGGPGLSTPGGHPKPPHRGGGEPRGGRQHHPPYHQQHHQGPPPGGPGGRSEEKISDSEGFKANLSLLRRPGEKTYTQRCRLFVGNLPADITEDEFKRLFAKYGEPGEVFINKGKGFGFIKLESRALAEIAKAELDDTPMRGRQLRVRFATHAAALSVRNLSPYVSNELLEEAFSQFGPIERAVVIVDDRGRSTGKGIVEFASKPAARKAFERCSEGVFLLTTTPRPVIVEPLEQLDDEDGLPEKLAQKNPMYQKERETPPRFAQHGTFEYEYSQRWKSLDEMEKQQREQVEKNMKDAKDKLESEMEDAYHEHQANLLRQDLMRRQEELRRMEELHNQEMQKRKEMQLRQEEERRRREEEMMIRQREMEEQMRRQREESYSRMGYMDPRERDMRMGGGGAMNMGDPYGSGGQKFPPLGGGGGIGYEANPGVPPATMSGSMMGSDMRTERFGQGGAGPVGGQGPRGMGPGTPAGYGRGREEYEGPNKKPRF

Measured: binding signal (fraction of sense)

Sequence of FLG2 (Filaggrin-2) (Homo sapiens) (Q5D862 whole entry): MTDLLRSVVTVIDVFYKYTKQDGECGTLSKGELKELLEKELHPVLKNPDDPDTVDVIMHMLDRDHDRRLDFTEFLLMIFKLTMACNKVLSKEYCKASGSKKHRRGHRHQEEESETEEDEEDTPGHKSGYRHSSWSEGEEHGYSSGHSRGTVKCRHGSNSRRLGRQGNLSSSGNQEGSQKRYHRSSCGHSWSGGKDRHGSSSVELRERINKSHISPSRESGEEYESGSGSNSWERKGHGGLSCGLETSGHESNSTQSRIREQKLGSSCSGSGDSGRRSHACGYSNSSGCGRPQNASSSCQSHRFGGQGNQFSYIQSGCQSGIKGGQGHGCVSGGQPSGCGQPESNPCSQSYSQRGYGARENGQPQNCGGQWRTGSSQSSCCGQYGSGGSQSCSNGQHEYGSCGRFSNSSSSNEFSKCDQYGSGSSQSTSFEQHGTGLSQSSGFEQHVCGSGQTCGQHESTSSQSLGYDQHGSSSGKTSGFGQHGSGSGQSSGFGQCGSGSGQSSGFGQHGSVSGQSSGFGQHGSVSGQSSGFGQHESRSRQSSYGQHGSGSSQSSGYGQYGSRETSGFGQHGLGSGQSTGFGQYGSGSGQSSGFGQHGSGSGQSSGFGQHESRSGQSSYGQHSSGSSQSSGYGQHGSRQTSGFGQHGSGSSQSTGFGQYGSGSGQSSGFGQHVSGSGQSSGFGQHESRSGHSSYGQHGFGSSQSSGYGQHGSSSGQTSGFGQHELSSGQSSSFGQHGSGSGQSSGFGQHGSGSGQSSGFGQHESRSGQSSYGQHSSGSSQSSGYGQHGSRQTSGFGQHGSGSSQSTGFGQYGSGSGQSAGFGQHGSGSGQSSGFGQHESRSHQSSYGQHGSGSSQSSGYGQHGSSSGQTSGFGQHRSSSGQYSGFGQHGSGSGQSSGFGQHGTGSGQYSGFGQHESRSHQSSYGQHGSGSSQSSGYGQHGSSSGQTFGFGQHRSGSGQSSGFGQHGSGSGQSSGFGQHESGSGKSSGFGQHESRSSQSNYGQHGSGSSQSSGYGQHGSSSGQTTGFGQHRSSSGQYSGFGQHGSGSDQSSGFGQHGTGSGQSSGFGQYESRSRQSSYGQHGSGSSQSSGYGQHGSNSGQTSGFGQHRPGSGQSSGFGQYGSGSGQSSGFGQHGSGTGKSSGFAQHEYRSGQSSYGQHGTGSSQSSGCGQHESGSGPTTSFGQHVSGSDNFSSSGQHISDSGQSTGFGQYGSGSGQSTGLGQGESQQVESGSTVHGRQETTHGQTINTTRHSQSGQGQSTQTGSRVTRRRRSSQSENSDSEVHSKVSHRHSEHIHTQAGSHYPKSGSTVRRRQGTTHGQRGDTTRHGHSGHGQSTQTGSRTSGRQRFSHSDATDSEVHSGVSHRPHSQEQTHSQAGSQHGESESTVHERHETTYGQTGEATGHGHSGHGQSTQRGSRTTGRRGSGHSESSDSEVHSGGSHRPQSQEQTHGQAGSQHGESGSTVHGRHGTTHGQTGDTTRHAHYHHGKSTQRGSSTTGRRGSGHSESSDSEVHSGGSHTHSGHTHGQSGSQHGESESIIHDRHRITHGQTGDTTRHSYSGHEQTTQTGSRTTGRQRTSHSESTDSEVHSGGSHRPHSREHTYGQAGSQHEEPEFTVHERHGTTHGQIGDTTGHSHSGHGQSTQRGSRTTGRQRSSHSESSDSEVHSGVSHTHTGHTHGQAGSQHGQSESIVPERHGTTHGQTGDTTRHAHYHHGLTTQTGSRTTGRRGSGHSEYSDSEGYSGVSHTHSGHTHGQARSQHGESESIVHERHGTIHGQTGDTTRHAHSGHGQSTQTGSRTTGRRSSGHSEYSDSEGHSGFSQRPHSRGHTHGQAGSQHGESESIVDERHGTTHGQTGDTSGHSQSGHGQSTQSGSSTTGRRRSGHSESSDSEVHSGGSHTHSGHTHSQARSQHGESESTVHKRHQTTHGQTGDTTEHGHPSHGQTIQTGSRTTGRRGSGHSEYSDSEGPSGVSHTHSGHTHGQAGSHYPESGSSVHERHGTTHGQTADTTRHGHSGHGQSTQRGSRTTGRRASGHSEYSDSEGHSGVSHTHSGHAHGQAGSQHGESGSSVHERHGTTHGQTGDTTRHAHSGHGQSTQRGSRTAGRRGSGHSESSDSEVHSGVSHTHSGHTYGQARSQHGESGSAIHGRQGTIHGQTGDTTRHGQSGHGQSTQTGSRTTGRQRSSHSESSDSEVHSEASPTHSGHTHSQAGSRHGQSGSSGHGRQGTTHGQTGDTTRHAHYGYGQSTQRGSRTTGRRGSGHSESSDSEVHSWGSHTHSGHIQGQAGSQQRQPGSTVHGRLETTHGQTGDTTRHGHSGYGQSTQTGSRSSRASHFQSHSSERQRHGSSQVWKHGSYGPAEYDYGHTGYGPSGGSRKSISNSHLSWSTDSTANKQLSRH
Sequence of ACLY (ATP-citrate synthase) (Homo sapiens) (P53396 whole entry): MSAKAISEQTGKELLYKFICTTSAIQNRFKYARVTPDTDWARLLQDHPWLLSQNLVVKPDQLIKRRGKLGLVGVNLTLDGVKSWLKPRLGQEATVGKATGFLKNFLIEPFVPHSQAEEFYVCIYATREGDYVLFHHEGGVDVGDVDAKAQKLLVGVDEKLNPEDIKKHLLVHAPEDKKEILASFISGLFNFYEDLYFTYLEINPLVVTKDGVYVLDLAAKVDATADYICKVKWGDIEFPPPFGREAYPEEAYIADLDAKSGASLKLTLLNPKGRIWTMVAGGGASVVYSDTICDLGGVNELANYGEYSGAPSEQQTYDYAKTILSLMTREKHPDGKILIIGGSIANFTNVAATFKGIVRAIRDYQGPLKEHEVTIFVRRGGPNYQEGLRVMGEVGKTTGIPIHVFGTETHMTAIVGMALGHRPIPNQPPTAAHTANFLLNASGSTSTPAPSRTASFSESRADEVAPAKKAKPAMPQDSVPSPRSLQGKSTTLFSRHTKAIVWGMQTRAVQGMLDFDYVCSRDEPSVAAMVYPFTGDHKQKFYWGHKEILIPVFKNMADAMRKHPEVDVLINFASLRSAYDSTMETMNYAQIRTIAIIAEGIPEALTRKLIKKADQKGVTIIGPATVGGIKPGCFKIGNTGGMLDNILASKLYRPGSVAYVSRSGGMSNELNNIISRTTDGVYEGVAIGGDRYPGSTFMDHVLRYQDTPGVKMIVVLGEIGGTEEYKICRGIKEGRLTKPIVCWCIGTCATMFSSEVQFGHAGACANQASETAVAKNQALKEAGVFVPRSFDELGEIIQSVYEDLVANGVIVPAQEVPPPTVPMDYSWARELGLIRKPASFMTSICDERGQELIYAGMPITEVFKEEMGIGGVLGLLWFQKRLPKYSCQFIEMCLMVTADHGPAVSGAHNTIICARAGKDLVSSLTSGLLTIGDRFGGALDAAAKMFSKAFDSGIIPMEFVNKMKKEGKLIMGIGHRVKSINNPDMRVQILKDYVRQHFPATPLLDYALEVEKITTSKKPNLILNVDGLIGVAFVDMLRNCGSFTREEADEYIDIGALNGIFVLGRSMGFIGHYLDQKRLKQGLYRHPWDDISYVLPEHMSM

lnc-FAM164A1 antisense RNA
< 0.5: [1] | [2] | [3]
